In the supplement of paper PMC11246515:
± gives the standard deviation of the averaged measurements.

Assay: total protein half-life in vivo (active degradation + dilution); higher = more stable protein
[1] = E. coli NCM3722 delta-clpP delta-lon delta-hslV, growth: N-lim chemostat, doubling time 6 h
[2] = E. coli NCM3722 delta-clpP, growth: N-lim chemostat, doubling time 6 h
[3] = E. coli NCM3722 delta-smpB, growth: N-lim chemostat, doubling time 6 h
[4] = wild type E. coli NCM3722, growth: C-lim chemostat, doubling time 3 h
[5] = wild type E. coli NCM3722, growth: C-lim chemostat, doubling time 6 h
[6] = wild type E. coli NCM3722, growth: C-lim chemostat, doubling time 12 h
[7] = wild type E. coli NCM3722, growth: N-lim chemostat, doubling time 6 h
[8] = wild type E. coli NCM3722, growth: N-lim chemostat, doubling time 12 h
[9] = wild type E. coli NCM3722, growth: P-lim chemostat, doubling time 6 h
[10] = wild type E. coli NCM3722, growth: P-lim chemostat, doubling time 12 h
[11] = E. coli NCM3722 delta-hslV, growth: N-lim chemostat, doubling time 6 h
[12] = E. coli NCM3722 delta-lon, growth: N-lim chemostat, doubling time 6 h

Row | Sequence | total protein half-life in vivo [1] [h] | total protein half-life in vivo [2] [h] | total protein half-life in vivo [3] [h] | total protein half-life in vivo [4] [h] | total protein half-life in vivo [5] [h] | total protein half-life in vivo [6] [h] | total protein half-life in vivo [7] [h] | total protein half-life in vivo [8] [h] | total protein half-life in vivo [9] [h] | total protein half-life in vivo [10] [h] | total protein half-life in vivo [11] [h] | total protein half-life in vivo [12] [h]
1 | MLARGKTNLKIEEIRMHKHHEIHRVKPLMPALCRIRQGKKVINWETHTLTVDNNQIILFPCGYEFYIENYPEAGLYLAEMLYLPIDLIESFQKLYTVTDQIRNKTSFFLPQNPELIYCWEQLKTSVSRGFSTKIQEHLAMGVLLSLGVNHVNHLLLSYSKQSLISRCYNLLLSEPGTKWTANKVARYLYISVSTLHRRLASEGVSFQSILDDVRLNNALSAIQTTVKPISEIARENGYKCPSRFTERFHNRFNITPREIRKASRE | 5.01 ± 0.22 | > 8 | 3.44 ± 0.094 | 2 ± 0.38 | 3.83 ± 0.19 | 6.07 ± 1.8 | 4.12 ± 0.23 | 7.29 ± 0.94 | 3.65 ± 1.5 | 5.86 ± 1.1 |  | 
2 | MLDLFKAIGLGLVVLLPLANPLTTVALFLGLAGNMNSAERNRQSLMASVYVFAIMMVAYYAGQLVMDTFGISIPGLRIAGGLIVAFIGFRMLFPQQKAIDSPEAKSKSEELEDEPSANIAFVPLAMPSTAGPGTIAMIISSASTVRQSSTFADWVLMVAPPLIFFLVAVILWGSLRSSGAIMRLVGKGGIEAISRLMGFLLVCMGVQFIINGILEIIKTYH [P0AEY1] |  | 6.57 ± 0.74 | 6.12 ± 0.25 |  | 5.73 ± 0.56 | 11.1 ± 0.56 |  | 10.7 | 6.23 ± 0.11 | 13 ± 1 | 5.91 | 6.14 ± 0.6
3 | MLELLYTALLYLIQPLIWIRLWVRGRKAPAYRKRWGERYGFYRHPLKPGGIMLHSVSVGETLAAIPLVRALRHRYPDLPITVTTMTPTGSERVQSAFGKDVQHVYLPYDLPDALNRFLNKVDPKLVLIMETELWPNLIAALHKRKIPLVIANARLSARSAAGYAKLGKFVRRLLRRITLIAAQNEEDGARFVALGAKNNQVTVTGSLKFDISVTPQLAAKAVTLRRQWAPHRPVWIATSTHEGEESVVIAAHQALLQQFPNLLLILVPRHPERFPDAINLVRQAGLSYITRSSGEVPSTSTQVVVGDTMGELMLLYGIADLAFVGGSLVERGGHNPLEAAAHAIPVLMGPHTFNFKDICARLEQASGLITVTDATTLAKEVSSLLTDADYRSFYGRHAVEVLYQNQGALQRLLQLLEPYLPPKTH [P0AC75] | 5.95 ± 0.12 | 6.64 ± 0.62 | 6.219 ± 0.038 | 3.23 ± 0.044 | 6.2 ± 0.5 | 10.6 ± 1.9 | 6.524 ± 0.011 | 13.7 ± 1.2 | 6.317 ± 0.014 | 11.9 ± 0.48 | 6.5 ± 0.35 | 6.08 ± 0.49
4 | MLERLSWKRLVLELLLCCLPAFILGAFFGYLPWFLLASVTGLLIWHFWNLLRLSWWLWVDRSMTPPPGRGSWEPLLYGLHQMQLRNKKRRRELGNLIKRFRSGAESLPDAVVLTTEEGGIFWCNGLAQQILGLRWPEDNGQNILNLLRYPEFTQYLKTRDFSRPLNLVLNTGRHLEIRVMPYTHKQLLMVARDVTQMHQLEGARRNFFANVSHELRTPLTVLQGYLEMMNEQPLEGAVREKALHTMREQTQRMEGLVKQLLTLSKIEAAPTHLLNEKVDVPMMLRVVEREAQTLSQKKQTFTFEIDNGLKVSGNEDQLRSAISNLVYNAVNHTPEGTHITVRWQRVPHGAEFSVEDNGPGIAPEHIPRLTERFYRVDKARSRQTGGSGLGLAIVKHAVNHHESRLNIESTVGKGTRFSFVIPERLIAKNSD | 6.39 ± 0.09 | 6.38 ± 0.28 | 6.31 ± 0.26 | 3.118 ± 0.019 | 5.82 ± 0.35 | 12.3 ± 1.7 | 6.4435 ± 0.0015 | 12.7 ± 2 | 6.19 ± 0.21 | 12.2 ± 0.24 | 5.95 ± 1.3 | 
5 | MLHPRARTMLLLSLPAVAIGIASSLILIVVMKIASVLQNLLWQRLPGTLGIAQDSPLWIIGVLTLTGIAVGLVIRFSQGHAGPDPACEPLIGAPVPPSALPGLIVALILGLAGGVSLGPEHPIMTVNIALAVAIGARLLPRVNRMEWTILASAGTIGALFGTPVAAALIFSQTLNGSSEVPLWDRLFAPLMAAAAGALTTGLFFHPHFSLPIAHYGQMEMTDILSGAIVAAIAIAAGMVAVWCLPRLHAMMHQMKNPVLVLGIGGFILGILGVIGGPVSLFKGLDEMQQMVANQAFSTSDYFLLAVIKLAALVVAAASGFRGGRIFPAVFVGVALGLMLHEHVPAVPAAITVSCAILGIVLVVTRDGWLSLFMAAVVVPNTTLLPLLCIVMLPAWLLLAGKPMMMVNRPKQQPPHDNV |  | 6.28 |  |  |  | 11.1 | 6.78 | 12.5 |  | > 16 | 7.8 | 5.98
6 | MLHTANPVIKHKAGLLNLAEELSNVSKACKIMGVSRDTFYRYRELVAEGGVDAQINRSRRAPNLKNRTDEATEQAVVDYAVAFPTHGQHRASNELRKQGVFISDSGVRSVWLLHNLENLKRRY | 5.09 ± 0.95 |  |  |  |  |  |  |  |  |  |  | 
7 | MLILISPAKTLDYQSPLTTTRYTLPELLDNSQQLIHEARKLTPPQISTLMRISDKLAGINAARFHDWQPDFTPANARQAILAFKGDVYTGLQAETFSEDDFDFAQQHLRMLSGLYGVLRPLDLMQPYRLEMGIRLENARGKDLYQFWGDIITNKLNEALAAQGDNVVINLASDEYFKSVKPKKLNAEIIKPVFLDEKNGKFKIISFYAKKARGLMSRFIIENRLTKPEQLTGFNSEGYFFDEDSSSNGELVFKRYEQR [P0A8I3] | 2.9 ± 0.42 | 2.57 ± 0.31 | 2.63 ± 0.37 | 2.66 ± 0.069 | 3.57 ± 0.5 | 6.32 ± 0.39 | 2.53 ± 0.26 | 3.4738 ± 0.0021 | 3.39 ± 0.057 | 6.11 ± 0.75 | 2.665 ± 0.025 | 3.07 ± 0.18
